According to patent US12679878B2, “CRF2 receptor agonists and their use in therapy” (SANOFI, priority 2020, dated 2026):
Starred links: 1 amine or outer side, 2 acyl side, 3 side chain; linkers in the order of their positions; H or OH if unused. Non-standard residues stand in square brackets, D forms with d. Groups on a side chain read outwards from the residue. No end group written: not given here. *: point of attachment. C18 diacid = O=C(O)CCCCCCCCCCCCCCCCC(=O)*; γGlu = O=C(O)[C@H](CCC(=O)[*:2])N[*:1]; Palmitoyl = CCCCCCCCCCCCCCCC(=O)*; AEEA = NCCOCCOCC(=O)O; Aib = CC(C)(N)C(=O)O

target: human corticotropin-releasing factor 2α (CRF2 α receptor) (human), Q13324; test: cell-based or functional assay
Sequence (Q13324 20-411): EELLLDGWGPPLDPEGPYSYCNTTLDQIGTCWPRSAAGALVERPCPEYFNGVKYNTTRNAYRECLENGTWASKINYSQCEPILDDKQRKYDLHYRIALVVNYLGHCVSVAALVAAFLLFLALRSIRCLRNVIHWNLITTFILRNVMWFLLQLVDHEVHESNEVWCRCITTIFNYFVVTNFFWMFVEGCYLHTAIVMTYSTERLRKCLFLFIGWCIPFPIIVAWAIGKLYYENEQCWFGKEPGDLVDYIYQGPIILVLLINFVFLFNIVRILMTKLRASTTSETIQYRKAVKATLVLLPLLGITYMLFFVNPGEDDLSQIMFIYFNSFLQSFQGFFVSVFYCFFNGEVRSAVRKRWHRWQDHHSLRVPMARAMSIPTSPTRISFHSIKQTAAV

| Binder | EC50 [nM], 0% HSA [nM] | EC50 [nM], 0.1% HSA [nM] |
| --- | --- | --- |
| IVLSLDVPIGLK([γGlu-Palmitoyl])QILLEQEKQEKEKQQAETNAQILAQV-NH2 (N-terminus assumed; SMILES CCCCCCCCCCCCCCCC(=O)N[C@@H](CCC(=O)NCCCC[C@H](NC(=O)[C@H](CC(C)C)NC(=O)CNC(=O)[C@@H](NC(=O)[C@@H]1CCCN1C(=O)[C@@H](NC(=O)[C@H](CC(=O)O)NC(=O)[C@H](CC(C)C)NC(=O)[C@H](CO)NC(=O)[C@H](CC(C)C)NC(=O)[C@@H](NC(=O)[C@@H](N)[C@@H](C)CC)C(C)C)C(C)C)[C@@H](C)CC)C(=O)N[C@@H](CCC(N)=O)C(=O)N[C@H](C(=O)N[C@@H](CC(C)C)C(=O)N[C@@H](CC(C)C)C(=O)N[C@@H](CCC(=O)O)C(=O)N[C@@H](CCC(N)=O)C(=O)N[C@@H](CCC(=O)O)C(=O)N[C@@H](CCCCN)C(=O)N[C@@H](CCC(N)=O)C(=O)N[C@@H](CCC(=O)O)C(=O)N[C@@H](CCCCN)C(=O)N[C@@H](CCC(=O)O)C(=O)N[C@@H](CCCCN)C(=O)N[C@@H](CCC(N)=O)C(=O)N[C@@H](CCC(N)=O)C(=O)N[C@@H](C)C(=O)N[C@@H](CCC(=O)O)C(=O)N[C@H](C(=O)N[C@@H](CC(N)=O)C(=O)N[C@@H](C)C(=O)N[C@@H](CCC(N)=O)C(=O)N[C@H](C(=O)N[C@@H](CC(C)C)C(=O)N[C@@H](C)C(=O)N[C@@H](CCC(N)=O)C(=O)N[C@H](C(N)=O)C(C)C)[C@@H](C)CC)[C@@H](C)O)[C@@H](C)CC)C(=O)O) [SEQ ID NO: 1] | 0.01 | – |
| IVLSLDVPIKLK([AEEA-AEEA-γGlu-C18 diacid])KILLEQEKQKKQREQAETNKQILAQV-NH2 (N-terminus assumed; SMILES CC[C@H](C)[C@H](N)C(=O)N[C@H](C(=O)N[C@@H](CC(C)C)C(=O)N[C@@H](CO)C(=O)N[C@@H](CC(C)C)C(=O)N[C@@H](CC(=O)O)C(=O)N[C@H](C(=O)N1CCC[C@H]1C(=O)N[C@H](C(=O)N[C@@H](CCCCN)C(=O)N[C@@H](CC(C)C)C(=O)N[C@@H](CCCCNC(=O)COCCOCCNC(=O)COCCOCCNC(=O)CC[C@H](NC(=O)CCCCCCCCCCCCCCCCC(=O)O)C(=O)O)C(=O)N[C@@H](CCCCN)C(=O)N[C@H](C(=O)N[C@@H](CC(C)C)C(=O)N[C@@H](CC(C)C)C(=O)N[C@@H](CCC(=O)O)C(=O)N[C@@H](CCC(N)=O)C(=O)N[C@@H](CCC(=O)O)C(=O)N[C@@H](CCCCN)C(=O)N[C@@H](CCC(N)=O)C(=O)N[C@@H](CCCCN)C(=O)N[C@@H](CCCCN)C(=O)N[C@@H](CCC(N)=O)C(=O)N[C@@H](CCCNC(=N)N)C(=O)N[C@@H](CCC(=O)O)C(=O)N[C@@H](CCC(N)=O)C(=O)N[C@@H](C)C(=O)N[C@@H](CCC(=O)O)C(=O)N[C@H](C(=O)N[C@@H](CC(N)=O)C(=O)N[C@@H](CCCCN)C(=O)N[C@@H](CCC(N)=O)C(=O)N[C@H](C(=O)N[C@@H](CC(C)C)C(=O)N[C@@H](C)C(=O)N[C@@H](CCC(N)=O)C(=O)N[C@H](C(N)=O)C(C)C)[C@@H](C)CC)[C@@H](C)O)[C@@H](C)CC)[C@@H](C)CC)C(C)C)C(C)C) [SEQ ID NO: 35] | 0.24 | 3.82 |
| IVLSLD[dV]PTKLK([AEEA-AEEA-γGlu-C18 diacid])QKLLKQERQRK[Aib]REQAEKNKRILERV-NH2 (N-terminus assumed; SMILES CC[C@H](C)[C@H](N)C(=O)N[C@H](C(=O)N[C@@H](CC(C)C)C(=O)N[C@@H](CO)C(=O)N[C@@H](CC(C)C)C(=O)N[C@@H](CC(=O)O)C(=O)N[C@@H](C(=O)N1CCC[C@H]1C(=O)N[C@H](C(=O)N[C@@H](CCCCN)C(=O)N[C@@H](CC(C)C)C(=O)N[C@@H](CCCCNC(=O)COCCOCCNC(=O)COCCOCCNC(=O)CC[C@H](NC(=O)CCCCCCCCCCCCCCCCC(=O)O)C(=O)O)C(=O)N[C@@H](CCC(N)=O)C(=O)N[C@@H](CCCCN)C(=O)N[C@@H](CC(C)C)C(=O)N[C@@H](CC(C)C)C(=O)N[C@@H](CCCCN)C(=O)N[C@@H](CCC(N)=O)C(=O)N[C@@H](CCC(=O)O)C(=O)N[C@@H](CCCNC(=N)N)C(=O)N[C@@H](CCC(N)=O)C(=O)N[C@@H](CCCNC(=N)N)C(=O)N[C@@H](CCCCN)C(=O)NC(C)(C)C(=O)N[C@@H](CCCNC(=N)N)C(=O)N[C@@H](CCC(=O)O)C(=O)N[C@@H](CCC(N)=O)C(=O)N[C@@H](C)C(=O)N[C@@H](CCC(=O)O)C(=O)N[C@@H](CCCCN)C(=O)N[C@@H](CC(N)=O)C(=O)N[C@@H](CCCCN)C(=O)N[C@@H](CCCNC(=N)N)C(=O)N[C@H](C(=O)N[C@@H](CC(C)C)C(=O)N[C@@H](CCC(=O)O)C(=O)N[C@@H](CCCNC(=N)N)C(=O)N[C@H](C(N)=O)C(C)C)[C@@H](C)CC)[C@@H](C)O)C(C)C)C(C)C) [SEQ ID NO: 36] | 1.45 | – |
| IVLSLDVPTKLK([AEEA-AEEA-γGlu-C18 diacid])QKLLKQERQRKERQQAETNKRILERV-NH2 (N-terminus assumed; SMILES CC[C@H](C)[C@H](N)C(=O)N[C@H](C(=O)N[C@@H](CC(C)C)C(=O)N[C@@H](CO)C(=O)N[C@@H](CC(C)C)C(=O)N[C@@H](CC(=O)O)C(=O)N[C@H](C(=O)N1CCC[C@H]1C(=O)N[C@H](C(=O)N[C@@H](CCCCN)C(=O)N[C@@H](CC(C)C)C(=O)N[C@@H](CCCCNC(=O)COCCOCCNC(=O)COCCOCCNC(=O)CC[C@H](NC(=O)CCCCCCCCCCCCCCCCC(=O)O)C(=O)O)C(=O)N[C@@H](CCC(N)=O)C(=O)N[C@@H](CCCCN)C(=O)N[C@@H](CC(C)C)C(=O)N[C@@H](CC(C)C)C(=O)N[C@@H](CCCCN)C(=O)N[C@@H](CCC(N)=O)C(=O)N[C@@H](CCC(=O)O)C(=O)N[C@@H](CCCNC(=N)N)C(=O)N[C@@H](CCC(N)=O)C(=O)N[C@@H](CCCNC(=N)N)C(=O)N[C@@H](CCCCN)C(=O)N[C@@H](CCC(=O)O)C(=O)N[C@@H](CCCNC(=N)N)C(=O)N[C@@H](CCC(N)=O)C(=O)N[C@@H](CCC(N)=O)C(=O)N[C@@H](C)C(=O)N[C@@H](CCC(=O)O)C(=O)N[C@H](C(=O)N[C@@H](CC(N)=O)C(=O)N[C@@H](CCCCN)C(=O)N[C@@H](CCCNC(=N)N)C(=O)N[C@H](C(=O)N[C@@H](CC(C)C)C(=O)N[C@@H](CCC(=O)O)C(=O)N[C@@H](CCCNC(=N)N)C(=O)N[C@H](C(N)=O)C(C)C)[C@@H](C)CC)[C@@H](C)O)[C@@H](C)O)C(C)C)C(C)C) [SEQ ID NO: 37] | 1.6 | – |
| IVLSLDVPTKLK([AEEA-AEEA-γGlu-C18 diacid])QKLLKQERQR[Aib]ERQQAETNKRILERV-NH2 (N-terminus assumed; SMILES CC[C@H](C)[C@H](N)C(=O)N[C@H](C(=O)N[C@@H](CC(C)C)C(=O)N[C@@H](CO)C(=O)N[C@@H](CC(C)C)C(=O)N[C@@H](CC(=O)O)C(=O)N[C@H](C(=O)N1CCC[C@H]1C(=O)N[C@H](C(=O)N[C@@H](CCCCN)C(=O)N[C@@H](CC(C)C)C(=O)N[C@@H](CCCCNC(=O)COCCOCCNC(=O)COCCOCCNC(=O)CC[C@H](NC(=O)CCCCCCCCCCCCCCCCC(=O)O)C(=O)O)C(=O)N[C@@H](CCC(N)=O)C(=O)N[C@@H](CCCCN)C(=O)N[C@@H](CC(C)C)C(=O)N[C@@H](CC(C)C)C(=O)N[C@@H](CCCCN)C(=O)N[C@@H](CCC(N)=O)C(=O)N[C@@H](CCC(=O)O)C(=O)N[C@@H](CCCNC(=N)N)C(=O)N[C@@H](CCC(N)=O)C(=O)N[C@@H](CCCNC(=N)N)C(=O)NC(C)(C)C(=O)N[C@@H](CCC(=O)O)C(=O)N[C@@H](CCCNC(=N)N)C(=O)N[C@@H](CCC(N)=O)C(=O)N[C@@H](CCC(N)=O)C(=O)N[C@@H](C)C(=O)N[C@@H](CCC(=O)O)C(=O)N[C@H](C(=O)N[C@@H](CC(N)=O)C(=O)N[C@@H](CCCCN)C(=O)N[C@@H](CCCNC(=N)N)C(=O)N[C@H](C(=O)N[C@@H](CC(C)C)C(=O)N[C@@H](CCC(=O)O)C(=O)N[C@@H](CCCNC(=N)N)C(=O)N[C@H](C(N)=O)C(C)C)[C@@H](C)CC)[C@@H](C)O)[C@@H](C)O)C(C)C)C(C)C) [SEQ ID NO: 38] | 20.9 | – |
| IVLSLDVPIKLK([AEEA-AEEA-γGlu-C18 diacid])QILLEQERQRKERQQAETNAQILAQV-NH2 (N-terminus assumed; SMILES CC[C@H](C)[C@H](N)C(=O)N[C@H](C(=O)N[C@@H](CC(C)C)C(=O)N[C@@H](CO)C(=O)N[C@@H](CC(C)C)C(=O)N[C@@H](CC(=O)O)C(=O)N[C@H](C(=O)N1CCC[C@H]1C(=O)N[C@H](C(=O)N[C@@H](CCCCN)C(=O)N[C@@H](CC(C)C)C(=O)N[C@@H](CCCCNC(=O)COCCOCCNC(=O)COCCOCCNC(=O)CC[C@H](NC(=O)CCCCCCCCCCCCCCCCC(=O)O)C(=O)O)C(=O)N[C@@H](CCC(N)=O)C(=O)N[C@H](C(=O)N[C@@H](CC(C)C)C(=O)N[C@@H](CC(C)C)C(=O)N[C@@H](CCC(=O)O)C(=O)N[C@@H](CCC(N)=O)C(=O)N[C@@H](CCC(=O)O)C(=O)N[C@@H](CCCNC(=N)N)C(=O)N[C@@H](CCC(N)=O)C(=O)N[C@@H](CCCNC(=N)N)C(=O)N[C@@H](CCCCN)C(=O)N[C@@H](CCC(=O)O)C(=O)N[C@@H](CCCNC(=N)N)C(=O)N[C@@H](CCC(N)=O)C(=O)N[C@@H](CCC(N)=O)C(=O)N[C@@H](C)C(=O)N[C@@H](CCC(=O)O)C(=O)N[C@H](C(=O)N[C@@H](CC(N)=O)C(=O)N[C@@H](C)C(=O)N[C@@H](CCC(N)=O)C(=O)N[C@H](C(=O)N[C@@H](CC(C)C)C(=O)N[C@@H](C)C(=O)N[C@@H](CCC(N)=O)C(=O)N[C@H](C(N)=O)C(C)C)[C@@H](C)CC)[C@@H](C)O)[C@@H](C)CC)[C@@H](C)CC)C(C)C)C(C)C) [SEQ ID NO: 39] | 0.65 | – |
